Experimental data: publication PMC9643514, “Regulation of BRCA1 stability through the tandem UBX domains of isoleucyl-tRNA synthetase 1” (Nature Communications, 2022)

T1: His-IARS1, full-length human IARS1 (residues 1−1262) (human, UniProt P41252 1-1262)
T1 construct: pFASTbacHTb vector; also called purified IARS1; full-length IARS1; source: Sf9, purified (Ni2+ column, IEX, SEC); not shown: His6, N-terminal, kept
T1 sequence (looked up): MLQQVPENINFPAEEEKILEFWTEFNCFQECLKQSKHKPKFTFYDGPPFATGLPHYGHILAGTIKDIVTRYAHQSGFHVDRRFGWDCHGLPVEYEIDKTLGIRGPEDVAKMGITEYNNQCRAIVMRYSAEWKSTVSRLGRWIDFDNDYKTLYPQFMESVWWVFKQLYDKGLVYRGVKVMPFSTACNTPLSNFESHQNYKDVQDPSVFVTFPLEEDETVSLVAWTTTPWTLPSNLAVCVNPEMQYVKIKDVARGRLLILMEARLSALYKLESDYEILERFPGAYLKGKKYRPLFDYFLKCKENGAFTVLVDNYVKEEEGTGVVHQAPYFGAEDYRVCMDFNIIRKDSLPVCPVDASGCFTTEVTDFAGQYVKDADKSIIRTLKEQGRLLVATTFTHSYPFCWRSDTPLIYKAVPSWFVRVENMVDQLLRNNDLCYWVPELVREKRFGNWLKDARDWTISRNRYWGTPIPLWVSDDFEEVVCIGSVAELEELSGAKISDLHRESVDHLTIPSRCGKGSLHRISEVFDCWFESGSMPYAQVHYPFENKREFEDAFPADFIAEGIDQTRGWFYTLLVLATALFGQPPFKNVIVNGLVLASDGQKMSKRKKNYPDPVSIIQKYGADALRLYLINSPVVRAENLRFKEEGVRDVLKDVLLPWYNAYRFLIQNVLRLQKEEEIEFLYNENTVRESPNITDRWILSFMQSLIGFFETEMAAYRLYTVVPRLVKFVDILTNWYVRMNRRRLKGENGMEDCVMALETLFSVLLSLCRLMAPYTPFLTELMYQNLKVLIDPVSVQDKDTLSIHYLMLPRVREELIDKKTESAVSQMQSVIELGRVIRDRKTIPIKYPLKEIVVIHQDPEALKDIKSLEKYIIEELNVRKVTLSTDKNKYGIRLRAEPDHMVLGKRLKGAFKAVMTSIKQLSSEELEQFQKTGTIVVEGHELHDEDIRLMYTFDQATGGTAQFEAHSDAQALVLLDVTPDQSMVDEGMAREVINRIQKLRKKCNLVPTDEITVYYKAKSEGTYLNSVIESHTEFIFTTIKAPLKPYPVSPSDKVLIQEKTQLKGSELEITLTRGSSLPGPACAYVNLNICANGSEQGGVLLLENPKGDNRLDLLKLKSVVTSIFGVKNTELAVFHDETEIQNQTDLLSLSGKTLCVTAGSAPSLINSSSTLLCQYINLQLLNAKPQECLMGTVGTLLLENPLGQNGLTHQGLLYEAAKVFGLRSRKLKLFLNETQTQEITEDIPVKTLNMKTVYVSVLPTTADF


What was measured:
[1] = molecular target: T1, His-IARS1, full-length human IARS1 …; test: pull-down; in vitro pull-down of IARS1 with fragments of the BRCA1-BARD1 complex; details: both partners purified
[2] = molecular target: T1, His-IARS1, full-length human IARS1 …; test: pull-down; human His-IARS1 or IARS1ΔUBX2 mixed with human GST-EARS1 at 1:1.5, 30 min at 4 °C, Ni-sepharose beads 2 hr at 4 °C, eluted with 250 mM imidazole in His A buffer (20 mM Tris-HCl pH 7.4, 300 mM NaCl, 7 mM 2-mercaptoethanol, 5% glycerol), SDS-PAGE and Coomassie; details: both partners purified

binding result [1] | binding result [2] | Binder
binds | – | BRCT domain (residues 1645–1863) of BRCA1 (domain or fragment, UniProt P38398 1645-1863, looked up, BRCA1 BRCT domain, residues 1645-1863; also called BRCA1 BRCT) RVNKRMSMVVSGLTPEEFMLVYKFARKHHITLTNLITEETTHVVMKTDAEFVCERTLKYFLGIAGGKWVVSYFWVTQSIKERKMLNEHDFEVRGDVVNGRNHQGPKRARESQDRKIFRGLEICCYGPFTNMPTDQLEWMVQLCGASVVKELSSFTLGTGVHPIVVVQPDAWTEDNGFHAIGQMCEAPVVTREWVLDSVALYQCQELDTYLIPQIPHSHY
– | binds | GST-EARS1 with three WHEP motifs (human EPRS1 residues 1–1015) (domain or fragment, UniProt P07814 1-1015, looked up, pGEX4T3 vector; source: E. coli Rosetta (DE3), purified (GST column, gel filtration)) MATLSLTVNSGDPPLGALLAVEHVKDDVSISVEEGKENILHVSENVIFTDVNSILRYLARVATTAGLYGSNLMEHTEIDHWLEFSATKLSSCDSFTSTINELNHCLSLRTYLVGNSLSLADLCVWATLKGNAAWQEQLKQKKAPVHVKRWFGFLEAQQAFQSVGTKWDVSTTKARVAPEKKQDVGKFVELPGAEMGKVTVRFPPEASGYLHIGHAKAALLNQHYQVNFKGKLIMRFDDTNPEKEKEDFEKVILEDVAMLHIKPDQFTYTSDHFETIMKYAEKLIQEGKAYVDDTPAEQMKAEREQRIDSKHRKNPIEKNLQMWEEMKKGSQFGQSCCLRAKIDMSSNNGCMRDPTLYRCKIQPHPRTGNKYNVYPTYDFACPIVDSIEGVTHALRTTEYHDRDEQFYWIIEALGIRKPYIWEYSRLNLNNTVLSKRKLTWFVNEGLVDGWDDPRFPTVRGVLRRGMTVEGLKQFIAAQGSSRSVVNMEWDKIWAFNKKVIDPVAPRYVALLKKEVIPVNVPEAQEEMKEVAKHPKNPEVGLKPVWYSPKVFIEGADAETFSEGEMVTFINWGNLNITKIHKNADGKIISLDAKLNLENKDYKKTTKVTWLAETTHALPIPVICVTYEHLITKPVLGKDEDFKQYVNKNSKHEELMLGDPCLKDLKKGDIIQLQRRGFFICDQPYEPVSPYSCKEAPCVLIYIPDGHTKEMPTSGSKEKTKVEATKNETSAPFKERPTPSLNNNCTTSEDSLVLYNRVAVQGDVVRELKAKKAPKEDVDAAVKQLLSLKAEYKEKTGQEYKPGNPPAEIGQNISSNSSASILESKSLYDEVAAQGEVVRKLKAEKSPKAKINEAVECLLSLKAQYKEKTGKEYIPGQPPLSQSSDSSPTRNSEPAGLETPEAKVLFDKVASQGEVVRKLKTEKAPKDQVDIAVQELLQLKAQYKSLIGVEYKPVSATGAEDKDKKKKEKENKSEKQNKPQKQNDGQRKDPSKNQGGGLSSSGAGEGQGPKKQTRLG
– | binds | GST-EARS1 without the WHEP motifs (human EPRS1 residues 1−706) (domain or fragment, UniProt P07814 1-706, looked up, human EPRS1, EARS1 part without the three WHEP motifs, residues 1-706; pGEX4T3 vector; source: E. coli Rosetta (DE3), purified (GST column, gel filtration)) MATLSLTVNSGDPPLGALLAVEHVKDDVSISVEEGKENILHVSENVIFTDVNSILRYLARVATTAGLYGSNLMEHTEIDHWLEFSATKLSSCDSFTSTINELNHCLSLRTYLVGNSLSLADLCVWATLKGNAAWQEQLKQKKAPVHVKRWFGFLEAQQAFQSVGTKWDVSTTKARVAPEKKQDVGKFVELPGAEMGKVTVRFPPEASGYLHIGHAKAALLNQHYQVNFKGKLIMRFDDTNPEKEKEDFEKVILEDVAMLHIKPDQFTYTSDHFETIMKYAEKLIQEGKAYVDDTPAEQMKAEREQRIDSKHRKNPIEKNLQMWEEMKKGSQFGQSCCLRAKIDMSSNNGCMRDPTLYRCKIQPHPRTGNKYNVYPTYDFACPIVDSIEGVTHALRTTEYHDRDEQFYWIIEALGIRKPYIWEYSRLNLNNTVLSKRKLTWFVNEGLVDGWDDPRFPTVRGVLRRGMTVEGLKQFIAAQGSSRSVVNMEWDKIWAFNKKVIDPVAPRYVALLKKEVIPVNVPEAQEEMKEVAKHPKNPEVGLKPVWYSPKVFIEGADAETFSEGEMVTFINWGNLNITKIHKNADGKIISLDAKLNLENKDYKKTTKVTWLAETTHALPIPVICVTYEHLITKPVLGKDEDFKQYVNKNSKHEELMLGDPCLKDLKKGDIIQLQRRGFFICDQPYEPVSPYSCKEAPCVLIYIPDGH
binds | – | heterodimeric RING (BRCA1 residues 1–304)-RING (BARD1 residues 26–142) domains of the BRCA1-BARD1 complex (complex, also called RING-RING domains; source: expressed and purified as the BRCA1-BARD1 complex) chain 1: MDLSALRVEEVQNVINAMQKILECPICLELIKEPVSTKCDHIFCKFCMLKLLNQKKGPSQCPLCKNDITKRSLQESTRFSQLVEELLKIICAFQLDTGLEYANSYNFAKKENNSPEHLKDEVSIIQSMGYRNRAKRLLQSEPENPSLQETSLSVQLSNLGTVRTLRTKQRIQPQKTSVYIELGSDSSEDTVNKATYCSVGDQELLQITPQGTRDEISLDSAKKAACEFSETDVTNTEHHQPSNNDLNTTEKRAAERHPEKYQGSSVSNLHVEPCGTNTHASSLQHENSSLLLTKDRMNVEKAEF chain 2: MEPDGRGAWAHSRAALDRLEKLLRCSRCTNILREPVCLGGCEHIFCSNCVSDCIGTGCPVCYTPAWIQDLKINRQLDSMIQLCSKLRNLLHDNELSDLKEDKPRKSLFNDAGNKKNS
